B1: COVA2-15 IgG (antibody, V domains shown)
VH: QVQLLESGGGLVQPGGSLRLSCAASGFTFSSYAMSWVRQAPGKGLEWASAISGSGGSTYYADSVEGRFTISRDNSKNTLYLQMNSLRAEDTAVYYCAKDTGYCGDDCYIKLIRGGPDYWGQGTLVTVSS
VL: DIVMTQSPLSLPVTLGQPASISCRSSQSLVYSDGNTFLNWFQQRPGQSPRRLIYQVSNRDSGVPDRFSGSGSGTDFTLKISRVEAEDVGVYYCMQGTHWPRTFGQGTKLEIK
B2: COVA2-15 secretory IgA2 (antibody, V domains shown)
VH: B1 VH
VL: B1 VL
B3: COVA2-15 monomeric IgA1 (antibody, V domains shown)
VH: B1 VH
VL: B1 VL
B4: COVA2-15 secretory IgA2 (antibody, V domains shown)
VH: B1 VH
VL: B1 VL
B5: COVA2-15 monomeric IgA1 (antibody, V domains shown)
VH: B1 VH
VL: B1 VL
B6: COVA2-15 secretory IgA1 (antibody, V domains shown)
VH: B1 VH
VL: B1 VL
B7: COVA2-15 IgG (antibody, V domains shown)
VH: B1 VH
VL: B1 VL
B8: COVA2-15 secretory IgA1 (antibody, V domains shown)
VH: B1 VH
VL: B1 VL
B9: COVA2-15 monomeric IgA2 (antibody, V domains shown)
VH: B1 VH
VL: B1 VL
B10: COVA2-15 monomeric IgA2 (antibody, V domains shown)
VH: B1 VH
VL: B1 VL

Key:
[1] = biological target: T1, Wuhan-Hu-1 S protein on plant-produced virus-like particles (Severe acute respiratory syndrome …, UniProt P0DTC2); test: ELISA; conditions: both partners purified
T1 construct: also called SARS-CoV-2 VLPs (Wuhan variant)

[2] = biological target: T2, Wuhan-Hu-1 S protein on plant-produced virus-like particles (Severe acute respiratory syndrome …, UniProt P0DTC2); test: ELISA; conditions: both partners purified
T2 construct: also called Spike protein of the Wuhan variant on VLPs; Wuhan variant

Binder	EC50 [1]	EC50 [2]
B1	0.032 nM	
B2		~0.01 nM
B3		~0.05 nM
B4	0.017 nM	
B5	0.054 nM	
B6	0.01 nM	
B7		~0.05 nM
B8		~0.01 nM
B9		~0.05 nM
B10	0.149 nM	
